According to US20230265179A1 (TWIST BIOSCIENCE, published 2023):
Positions count from the first letter of the chain named.

Biological target: T1, IL1RL1 over-expressed on Expi293 cells (UniProt Q01638 19-556, limits assumed)
T1 construct: whole, on cells; Target of the flow cytometry MFI ratio (over-expressing cells over parent cells); also called cytokine over-expressing Expi293 cells
T1 sequence (looked up): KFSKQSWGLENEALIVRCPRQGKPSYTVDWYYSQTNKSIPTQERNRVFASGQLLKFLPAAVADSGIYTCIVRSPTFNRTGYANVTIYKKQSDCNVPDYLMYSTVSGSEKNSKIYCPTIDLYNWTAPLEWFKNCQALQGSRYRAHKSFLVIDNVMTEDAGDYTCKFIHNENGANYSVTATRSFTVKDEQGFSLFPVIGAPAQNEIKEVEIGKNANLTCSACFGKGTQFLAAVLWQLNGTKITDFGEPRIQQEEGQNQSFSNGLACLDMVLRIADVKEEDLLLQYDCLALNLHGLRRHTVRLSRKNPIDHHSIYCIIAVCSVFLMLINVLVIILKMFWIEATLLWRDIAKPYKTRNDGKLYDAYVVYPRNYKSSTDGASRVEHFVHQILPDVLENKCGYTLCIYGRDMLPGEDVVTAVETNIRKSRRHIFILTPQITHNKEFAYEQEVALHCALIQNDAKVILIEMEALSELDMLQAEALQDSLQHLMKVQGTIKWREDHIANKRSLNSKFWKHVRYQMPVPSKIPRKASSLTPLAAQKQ
Assay: flow cytometry, 100 nM antibody, over-expressing Expi293 / parent cells
Description: All incubations and washes were in buffer containing PBS+1% BSA. MFI Ratio is defined by the mean fluorescence intensity (MFI) of the cytokine over-expressing Expi293 cell over the Expi293 parent cell. […] EC50 was calculated in GraphPad Prism.

B1: IL1RL1-193 (antibody, V domains shown)
VH: EVQLLESGGGLVQPGGSLRLSCAASGFTFAKYKMWWVRQAPGKGLEWVSGITRSGSTNYRDSVKGRFTISRDNSKNTLYLQMNSLRAEDTAVYYCASLSRGYWGQGTLVTVSS
VL: DIQMTQSPSSLSASVGDRVTITCKASDHIGKFLTWYQQKPGKAPKLLIYHTSRLQSGVPSRFSGSGSGTDFTLTISSLQPEDFATYYCQQGFSNPWTFGQGTKVEIK
notes: IgG2
100 nM FACS (MFI Ratio): 1.62 MFI ratio

B2: IL1RL1-36 (Fc fusion, not shown: a dimerising Fc or GST)
VHH: EVQLVESGGGLVQPGGSLRLSCAASGSIYSLVAMGWFRQAPGKEREWMGVIAYDGSTYYADSVKGRFTISADNSKNTAYLQMNSLKPEDTAVYYCAAVGGATTVTASEWDWGQGTLVTVSS
notes: VHH-Fc on IgG2 Fc
100 nM FACS (MFI Ratio): 87.7 MFI ratio

B3: IL1RL1-192 (antibody, V domains shown)
VH: EVQLLESGGGLVQPGGSLRLSCAASGFTFGNYAMAWVRQAPGKGLEWVSGITRSGSTNYRDSVKGRFTISRDNSKNTLYLQMNSLRAEDTAVYYCARDRYFRQQNAFDYWGQGTLVTVSS
VL: DIQMTQSPSSLSASVGDRVTITCQASQSISSYLAWYQQKPGKAPKLLIYGRNKRPSGVPSRFSGSGSGTDFTLTISSLQPEDFATYYCAQTGTHPTTFGQGTKVEIK
notes: IgG2
100 nM FACS (MFI Ratio): 0.55 MFI ratio

B4: IL1RL1-33 (Fc fusion, not shown: a dimerising Fc or GST)
VHH: EVQLVESGGGLVQPGGSLRLSCAASGGTFSTHWMGWFRQAPGKEREEVAAISWIIGSTYYADSVKGRFTISADNSKNTAYLQMNSLKPEDTAVYYCATSGSGSPNWGQGTLVTVSS
100 nM FACS (MFI Ratio): 504 MFI ratio

B5: IL1RL1-252 (antibody, V domains shown)
VH: EVQLLESGGGLVQPGGSLRLSCAASGFTFSRYHIEWVRQAPGKGLEWVSAISGRGDNTYYADSVKGRFTISRDNSKNTLYLQMNSLRAEDTAVYYCARHKGLQPLDYWGQGTLVTVSS
VL: DIQMTQSPSSLSASVGDRVTITCRASQDVSSGVAWYQQKPGKAPKLLIYPKHNRPPGVPSRFSGSGSGTDFTLTISSLQPEDFATYYCSARSVRGNPHVLFGQGTKVEIK
notes: IgG2
100 nM FACS (MFI Ratio): 0.58 MFI ratio

B6: IL1RL1-32 (Fc fusion, not shown: a dimerising Fc or GST)
VHH: EVQLVESGGGLVQPGGSLRLSCAASGFTLGDYVMGWFRQAPGKEREFVAVIYTSDGSTYYADSVKGRFTISADNSKNTAYLQMNSLKPEDTAVYYCVVSFSTRGPYWGQGTLVTVSS
notes: VHH-Fc on IgG2 Fc
100 nM FACS (MFI Ratio): 432 MFI ratio

B7: IL1RL1-245 (antibody, V domains shown)
VH: EVQLLESGGGLVQPGGSLRLSCAASGFTLSSYAMSWVRQAPGKGLEWVSGITRSGSTNYRDSVKGRFTISRDNSKNTLYLQMNSLRAEDTAVYYCAKFPFTHGKFDYWGQGTLVTVSS
VL: DIQMTQSPSSLSASVGDRVTITCRASQGVRTSLAWYQQKPGKAPKLLIYRASTLASGVPSRFSGSGSGTDFTLTISSLQPEDFATYYCASRSSKGNPHVLFGQGTKVEIK
notes: IgG2
100 nM FACS (MFI Ratio): 1.28 MFI ratio

B8: IL1RL1-76 (Fc fusion, not shown: a dimerising Fc or GST)
VHH: EVQLVESGGGLVQPGGSLRLSCAASGSIFTIYAMGWFRQAPGKEREWVASISTSGSTITPYADSVKGRFTISADNSKNTAYLQMNSLKPEDTAVYYCATTEYSGYDAVNYWGQGTLVTVSS
notes: VHH-Fc on IgG2 Fc
100 nM FACS (MFI Ratio): 385 MFI ratio

B9: IL1RL1-200 (antibody, V domains shown)
VH: EVQLLESGGGLVQPGGSLRLSCAASGFTFKSYGMHWVRQAPGKGLEWVSLIPHTGNPTYYADSVKGRFTISRDNSKNTLYLQMNSLRAEDTAVYYCARGGPRGNKYYFDYWGQGTLVTVSS
VL: DIQMTQSPSSLSASVGDRVTITCSGDKLGHTYTSWYQQKPGKAPKLLIYRKSNRPSGVPSRFSGSGSGTDFTLTISSLQPEDFATYYCYSRDRSGNHLGMFGQGTKVEIK
notes: IgG2
100 nM FACS (MFI Ratio): 1 MFI ratio

B10: IL1RL1-221 (antibody, V domains shown)
VH: EVQLLESGGGLVQPGGSLRLSCAASGFTFPKYDMMWVRQAPGKGLEWVSSIRGSSSSTYYADSVKGRFTISRDNSKNTLYLQMNSLRAEDTAVYYCARAGRILFDYWGQGTLVTVSS
VL: DIQMTQSPSSLSASVGDRVTITCRASQTIERRLNWYQQKPGKAPKLLIYGRNKRPSGVPSRFSGSGSGTDFTLTISSLQPEDFATYYCGQSYRYPLTFGQGTKVEIK
notes: IgG2
100 nM FACS (MFI Ratio): 0.51 MFI ratio

B11: IL1RL1-256 (antibody, V domains shown)
VH: EVQLLESGGGLVQPGGSLRLSCAASGFTFDRYRMTWVRQAPGKGLEWVSSIGANGAPTYYADSVKGRFTISRDNSKNTLYLQMNSLRAEDTAVYYCARGRLFDYWGQGTLVTVSS
VL: DIQMTQSPSSLSASVGDRVTITCQGASLRNYYASWYQQKPGKAPKLLIYGNNNRPSGVPSRFSGSGSGTDFTLTISSLQPEDFATYYCASRSSKGNPHVLFGQGTKVEIK
notes: IgG2
100 nM FACS (MFI Ratio): 0.6 MFI ratio

B12: IL1RL1-257 (antibody, V domains shown)
VH: B11 VH with D30S, R31P, Y32R, T35S, S50A, G52T, A53G, N54S, A56G, P57S
VL: DIQMTQSPSSLSASVGDRVTITCRASQSISGYLNWYQQKPGKAPKLLIYGNNNRPSGVPSRFSGSGSGTDFTLTISSLQPEDFATYYCSQNTHVPYTFGQGTKVEIK
notes: IgG2
100 nM FACS (MFI Ratio): 1.38 MFI ratio

B13: IL1RL1-189 (antibody, V domains shown)
VH: EVQLLESGGGLVQPGGSLRLSCAASGFTFSSYFMSWVRQAPGKGLEWVSAISREGRATYYADSVKGRFTISRDNSKNTLYLQMNSLRAEDTAVYYCARIRVGPSGGAFDYWGQGTLVTVSS
VL: DIQMTQSPSSLSASVGDRVTITCKASDHIGKFLTWYQQKPGKAPKLLIYGRNKRPSGVPSRFSGSGSGTDFTLTISSLQPEDFATYYCQQSYSTPTFGQGTKVEIK
notes: IgG2
100 nM FACS (MFI Ratio): 7.46 MFI ratio

B14: IL1RL1-239 (antibody, V domains shown)
VH: EVQLLESGGGLVQPGGSLRLSCAASGFTFRRYVMGWVRQAPGKGLEWVSSISGSSGTTYYADSVKGRFTISRDNSKNTLYLQMNSLRAEDTAVYYCAKAYYGGFDYWGQGTLVTVSS
VL: DIQMTQSPSSLSASVGDRVTITCSASSSVSSSYLHWYQQKPGKAPKLLIYRKSNRPSGVPSRFSGSGSGTDFTLTISSLQPEDFATYYCQQSYSTPTFGQGTKVEIK
notes: IgG2
100 nM FACS (MFI Ratio): 1.93 MFI ratio

B15: IL1RL1-230 (antibody, V domains shown)
VH: EVQLLESGGGLVQPGGSLRLSCAASGFTFSGYIMAWVRQAPGKGLEWVSSISSTGFKTYYADSVKGRFTISRDNSKNTLYLQMNSLRAEDTAVYYCAKGNSRYVFDYWGQGTLVTVSS
VL: DIQMTQSPSSLSASVGDRVTITCKASDHIGKFLTWYQQKPGKAPKLLIYGRNKRPSGVPSRFSGSGSGTDFTLTISSLQPEDFATYYCNSRDTSGLHYVFGQGTKVEIK
notes: IgG2
100 nM FACS (MFI Ratio): 1.43 MFI ratio

B16: IL1RL1-31 (Fc fusion, not shown: a dimerising Fc or GST)
VHH: EVQLVESGGGLVQPGGSLRLSCAASGFTFRNFGMGWFRQAPGKEREFVALINVGGVAKYADSVKGRFTISADNSKNTAYLQMNSLKPEDTAVYYCTTDARHWGQGTLVTVSS
notes: VHH-Fc on IgG2 Fc
100 nM FACS (MFI Ratio): 311 MFI ratio

B17: IL1RL1-214 (antibody, V domains shown)
VH: EVQLLESGGGLVQPGGSLRLSCAASGFTFNAYPMTWVRQAPGKGLEWVSAISGRGDNTYYADSVKGRFTISRDNSKNTLYLQMNSLRAEDTAVYYCARPPKRGPRFDYWGQGTLVTVSS
VL: DIQMTQSPSSLSASVGDRVTITCKASENVDTYVSWYQQKPGKAPKLLIYGRNKRPSGVPSRFSGSGSGTDFTLTISSLQPEDFATYYCQQGHTLPWTFGQGTKVEIK
notes: IgG2
100 nM FACS (MFI Ratio): 1.34 MFI ratio

B18: IL1RL1-79 (Fc fusion, not shown: a dimerising Fc or GST)
VHH: EVQLVESGGGLVQPGGSLRLSCAASGRTFSMGWFRQAPGKEREAVASISWSGGSAFYADSVKGRFTISADNSKNTAYLQMNSLKPEDTAVYYCAAIGGGAVWGQGTLVTVSS
notes: VHH-Fc on IgG2 Fc
100 nM FACS (MFI Ratio): 1 MFI ratio
